Laboratory results from patent US20210317456.

Key:
[1] = test system: IgD (Homo sapiens); assay: filter; conditions: Zorbax, SB18, 37 C
[2] = test system: IgA (Homo sapiens); assay: filter; conditions: Zorbax, SB18, 37 C
[3] = test system: IgM (Homo sapiens); assay: filter; conditions: Zorbax, SB18, 37 C
[4] = test system: Total IgG (monkey) (monkey); assay: filter; conditions: Zorbax, SB18, 37 C
[5] = test system: β-FGFR fusion (Fc fusion protein) (Homo sapiens); assay: filter; conditions: Zorbax, SB18, 37 C
[6] = test system: Total IgG (rabbit) (Oryctolagus cuniculus); assay: filter; conditions: Zorbax, SB18, 37 C
[7] = test system: IgG1-Kappa (Homo sapiens), P01857-1+P01834; assay: pulldown; conditions: Protein L beads
[8] = test system: IgG4-Kappa (Homo sapiens), P01861-1+P01834; assay: pulldown; conditions: Protein L beads
Chain of IgG4-Kappa (Homo sapiens), P01861-1+P01834 (P01861 other isoform, or with tags, fused parts or gaps, chain 1 of 2, other chains not shown): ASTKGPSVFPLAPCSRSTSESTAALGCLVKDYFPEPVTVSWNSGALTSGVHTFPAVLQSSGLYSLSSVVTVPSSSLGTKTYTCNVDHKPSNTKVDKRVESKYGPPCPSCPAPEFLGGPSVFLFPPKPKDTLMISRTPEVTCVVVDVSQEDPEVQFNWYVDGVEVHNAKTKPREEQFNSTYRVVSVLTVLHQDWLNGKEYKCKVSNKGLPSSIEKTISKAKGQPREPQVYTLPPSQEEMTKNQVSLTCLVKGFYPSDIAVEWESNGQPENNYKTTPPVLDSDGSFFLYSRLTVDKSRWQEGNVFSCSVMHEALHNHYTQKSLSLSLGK

[9] = test system: Immunoglobulin G (total IgG); assay: pulldown; conditions: SB18, 37C
[10] = test system: IgG3-Kappa (Homo sapiens), P01860-1+P01834; assay: pulldown; conditions: Protein L beads
Chain of IgG3-Kappa (Homo sapiens), P01860-1+P01834 (P01860 other isoform, or with tags, fused parts or gaps, chain 1 of 2, other chains not shown): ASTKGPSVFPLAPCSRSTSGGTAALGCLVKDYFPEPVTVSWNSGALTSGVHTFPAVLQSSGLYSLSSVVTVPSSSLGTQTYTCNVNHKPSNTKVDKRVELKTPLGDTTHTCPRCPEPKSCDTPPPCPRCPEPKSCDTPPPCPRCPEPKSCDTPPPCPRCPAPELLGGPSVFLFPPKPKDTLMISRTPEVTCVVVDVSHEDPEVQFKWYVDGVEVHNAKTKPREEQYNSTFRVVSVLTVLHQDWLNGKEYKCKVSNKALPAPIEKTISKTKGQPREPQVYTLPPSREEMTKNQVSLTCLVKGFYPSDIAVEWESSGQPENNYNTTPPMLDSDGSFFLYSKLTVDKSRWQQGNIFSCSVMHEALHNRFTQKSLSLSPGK

[11] = test system: IgG3-Fc (Homo sapiens), P01860-1; assay: filter; conditions: n (P) = NapdU; Zorbax, SB18, 37 C
Chain of IgG3-Fc (Homo sapiens), P01860-1 (P01860 other isoform, or with tags, fused parts or gaps): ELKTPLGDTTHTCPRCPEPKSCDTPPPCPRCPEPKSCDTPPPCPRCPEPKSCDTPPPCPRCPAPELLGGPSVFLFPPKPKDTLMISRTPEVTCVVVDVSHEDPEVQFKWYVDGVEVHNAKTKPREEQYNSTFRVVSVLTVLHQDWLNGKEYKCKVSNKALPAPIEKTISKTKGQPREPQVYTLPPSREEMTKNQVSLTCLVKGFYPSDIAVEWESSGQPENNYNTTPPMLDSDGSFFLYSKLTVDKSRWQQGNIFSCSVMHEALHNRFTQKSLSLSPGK

[12] = test system: IgG1-Fc (Homo sapiens), P01857-1; assay: filter; conditions: n (P) = NapdU; Zorbax, SB18, 37 C
[13] = test system: IgG2-Fc (Homo sapiens), P01859-1; assay: filter; conditions: n (P) = NapdU; Zorbax, SB18, 37 C
Chain of IgG2-Fc (Homo sapiens), P01859-1 (P01859 other isoform, or with tags, fused parts or gaps): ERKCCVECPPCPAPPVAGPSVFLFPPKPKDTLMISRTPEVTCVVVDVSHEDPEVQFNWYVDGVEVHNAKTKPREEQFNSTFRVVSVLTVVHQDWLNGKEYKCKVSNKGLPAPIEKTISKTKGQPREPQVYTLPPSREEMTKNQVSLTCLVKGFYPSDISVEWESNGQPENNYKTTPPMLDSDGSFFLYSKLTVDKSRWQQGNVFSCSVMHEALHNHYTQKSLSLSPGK

[14] = test system: IgG4-Fc (Homo sapiens), P01861-1; assay: filter; conditions: n (P) = NapdU; Zorbax, SB18, 37 C
Chain of IgG4-Fc (Homo sapiens), P01861-1 (P01861 other isoform, or with tags, fused parts or gaps): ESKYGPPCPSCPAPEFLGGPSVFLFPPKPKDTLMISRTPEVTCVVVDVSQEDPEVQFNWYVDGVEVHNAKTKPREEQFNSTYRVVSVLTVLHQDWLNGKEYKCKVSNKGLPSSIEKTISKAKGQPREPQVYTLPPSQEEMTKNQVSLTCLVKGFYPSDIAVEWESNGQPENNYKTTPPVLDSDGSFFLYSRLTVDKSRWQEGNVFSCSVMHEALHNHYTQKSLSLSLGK

[15] = test system: Total IgG (cow) (Bos taurus); assay: pulldown; conditions: P = 2NapdU; Zorbax beads, SB18, 37C
[16] = test system: Total IgG (sheep) (Ovis aries); assay: pulldown; conditions: P = 2NapdU; Zorbax beads, SB18, 37C
[17] = test system: IgD (Homo sapiens); assay: pulldown; conditions: Zorbax beads, SB18, 37C
[18] = test system: IgG3-Fc (Homo sapiens), P01860-1; assay: pulldown; conditions: 37C, bead partitioning
[19] = test system: IgA (Homo sapiens); assay: pulldown; conditions: Zorbax beads, SB18, 37C
[20] = test system: IgG1-Fc (Homo sapiens), P01857-1; assay: pulldown; conditions: 37C, bead partitioning
[21] = test system: IgG2-Fc (Homo sapiens), P01859-1; assay: pulldown; conditions: 37C, bead partitioning
[22] = test system: Total IgG (goat) (Capra hircus); assay: pulldown; conditions: P = 2NapdU; Zorbax beads, SB18, 37C
[23] = test system: IgM (cow) (Bos taurus); assay: pulldown; conditions: P = 2NapdU; Zorbax beads, SB18, 37C
[24] = test system: IgG1 (mouse) (Mus musculus); assay: pulldown; conditions: P = 2NapdU; Protein L beads, SB17; printed as 3E07 (minus sign missing)
[25] = test system: Total IgG (mouse) (Mus musculus); assay: pulldown; conditions: P = 2NapdU; Zorbax beads, SB18, 37C
[26] = test system: IgM (Homo sapiens); assay: pulldown; conditions: Zorbax beads, SB18, 37C
[27] = test system: Total IgG (monkey) (monkey); assay: pulldown; conditions: Zorbax beads, SB18, 37C
[28] = test system: β-FGFR fusion (Fc fusion protein) (Homo sapiens); assay: pulldown; conditions: 37C, bead partitioning
[29] = test system: Total IgG (rabbit) (Oryctolagus cuniculus); assay: pulldown; conditions: Zorbax beads, SB18, 37C
[30] = test system: IgG4-Fc (Homo sapiens), P01861-1; assay: pulldown; conditions: 37C, bead partitioning

Sequence: CGGCACTCCACATCCAAGACTGCGGTTACCTTGTAGGCGATTATGGGCAG [5334-8_3]
- Kd ([1]; n (P) = 2NapdU): 600 nM
- Kd ([2]; n (P) = 2NapdU): 200 nM
- Kd ([3]; n (P) = 2NapdU): 100 nM
- Kd ([4]; n (P) = 2NapdU): 20 nM
- Kd ([5]; n (P) = 2NapdU): 9 nM
- Kd ([6]; n (P) = 2NapdU): 20 nM
- Kd ([7]; n (P) = 2NapdU, SB17, 37 C): 40 nM
- Kd ([8]; n (P) = 2NapdU, SB17, 37 C): 10 nM
- Kd ([9]; P = 2NapdU at all n positions, 12.2 nM in Table 4): 7.52 nM
- Kd ([10]; n (P) = 2NapdU, SB17, 37 C): 7 nM

Sequence: GCCTGCACGATGGCGAACTCCCTGAATGCTCTTGTCTTAAGTCCCCAACA [14125-144_3]
- Kd ([1]; n (P) = NapdU): 600 nM
- Kd [11]: 5 nM
- Kd ([2]; n (P) = NapdU): 30 nM
- Kd [12]: 40 nM
- Kd [13]: 8 nM
- Kd ([3]; n (P) = NapdU): 40 nM
- Kd ([4]; n (P) = NapdU): 80 nM
- Kd ([5]; n (P) = NapdU): 3 nM
- Kd ([6]; n (P) = NapdU): 40 nM
- Kd [14]: 20 nM
- Kd ([7]; n (P) = NapdU, SB17, 37 C): 20 nM
- Kd ([8]; n (P) = NapdU, SB17, 37 C): 5 nM
- Kd ([9]; P = NapdU at all n positions, 18.8 nM in Table 6): 16.3 nM
- Kd ([10]; n (P) = NapdU, SB17, 37 C): 4 nM

Sequence: GCGGTTACCTTGTAGGCGATTATGGGCA [5334-8_34]
- Kd [15]: 500 nM
- Kd [16]: 500 nM
- Kd ([7]; P = 2NapdU, SB17, 37C): 20 nM
- Kd ([17]; P = 2NapdU): 60 nM
- Kd ([18]; P = 2NapdU): 1 nM
- Kd ([19]; P = 2NapdU): 40 nM
- Kd ([20]; P = 2NapdU): 5 nM
- Kd ([21]; P = 2NapdU): 2 nM
- Kd [22]: 600 nM
- Kd ([8]; P = 2NapdU, SB17, 37C): 3 nM
- Kd [23]: 40 nM
- Kd [24]: 300 nM
- Kd [25]: 200 nM
- Kd ([26]; P = 2NapdU): 0.6 nM
- Kd ([9]; P = 2NapdU, 8E-09 M in Table 7): 9.71 nM
- Kd ([27]; P = 2NapdU): 6 nM
- Kd ([10]; P = 2NapdU, SB17, 37C): 4 nM
- Kd ([28]; P = 2NapdU): 2 nM
- Kd ([29]; P = 2NapdU): 9 nM
- Kd ([30]; P = 2NapdU): 2 nM

Sequence: TGGCGAACTCCCTGAATGCTCTTGTCTT [14125-144_30]
- Kd ([7]; P = NapdU, SB17, 37C): 40 nM
- Kd ([17]; P = NapdU): 80 nM
- Kd ([18]; P = NapdU): 2 nM
- Kd ([19]; P = NapdU): 100 nM
- Kd ([20]; P = NapdU): 30 nM
- Kd ([21]; P = NapdU): 7 nM
- Kd ([8]; P = NapdU, SB17, 37C): 4 nM
- Kd ([26]; P = NapdU): 6 nM
- Kd ([9]; P = NapdU, 3E-08 M in Table 7): 8.18 nM
- Kd ([27]; P = NapdU): 60 nM
- Kd ([10]; P = NapdU, SB17, 37C): 8 nM
- Kd ([28]; P = NapdU): 4 nM
- Kd ([29]; P = NapdU): 100 nM
- Kd ([30]; P = NapdU): 30 nM
